Experimental data reported in the Human Domainome abundance scans (Beltran et al. 2025).

B1: KAT8 regulatory NSL complex subunit 2, residues 28 to 91; numbered along this chain, Q9H9L4 (parent)
chain: CAFTHRPCSHPRLEGQEFCIKHILEDKNAPFKQCSYISTKNGKRCPNAAPKPEKKDGVSFCAEH

Variants of: B1
Assay: abundance fitness (aPCA) (normalised: wild type 0, dead -1); higher = more abundant; growth selection in yeast, the domain comes from the species named
Conditions: Homo sapiens

Abundance fitness of substitutions, site by site:
H10: S -0.042 | I -0.013 | R -0.064 | P -1.12 | M -0.047 | C -0.015 | A -0.126 | G -0.01 | T -0.11 | D -0.28 | E -0.038 | Y -0.041 | K -0.113 | L -0.103 | V -0.149 | Q -0.078 | W -0.127 | F -0.076
P7: Y -0.149 | H -0.133 | D 0.003 | C -0.201 | F -0.121 | W -0.148 | R -0.003 | L -0.101 | K -0.123 | E -0.063 | Q -0.072 | M -0.05 | V -0.1 | G -0.063 | S -0.14 | I -0.096 | N -0.204 | A -0.061
I23: G -0.295 | M -0.204 | V -0.124 | W -0.286 | L -0.143 | T -0.178 | Y -0.296 | E -0.351 | H -0.246 | S -0.156 | N -0.463 | A -0.078 | P -0.627 | Q -0.136 | F -0.404 | K -0.165 | C -0.154 | D -0.35
I20: N -0.328 | Q -0.091 | L -0.057 | Y -0.151 | K -0.195 | A -0.048 | G -0.104 | P -0.184 | W -0.201 | E -0.129 | D -0.208 | S -0.136 | H -0.179 | R -0.117 | F -0.115 | T -0.2 | C -0.14 | M -0.031
Q16: W -0.226 | C -0.198 | D -0.408 | R -0.089 | Y -0.187 | S -0.091 | E -0.261 | I -0.497 | P -1.11 | K -0.143 | L -0.054 | V -0.38 | N -0.25 | M -0.146 | T -0.15
E25: M -0.092 | R -0.099 | S -0.111 | H 0.053 | D -0.188 | A -0.132 | P -0.356 | I -0.171 | T -0.127 | C -0.223 | F -0.065 | L -0.098 | G -0.063 | N -0.203 | K -0.23
L24: D -0.13 | I -0.2 | P -0.134 | N -0.348 | F -0.195 | K -0.261 | R -0.164 | M -0.093 | H -0.227 | G -0.098 | Y -0.168 | A -0.144 | C -0.129 | Q -0.147 | S -0.12 | E -0.234
R12: S -0.106 | T -0.103 | L -0.27 | W -1.22 | P -0.147 | E -0.674 | D -0.93 | A -0.055 | F -0.77 | M -0.47 | N -0.279 | K -0.325 | G -0.652 | I -0.234 | V -0.066 | Q -0.561 | Y -0.787 | H -0.308
S9: R -0.186 | T -0.193 | Q -0.115 | F 0.008 | I 0.016 | G -0.13 | K -0.343 | D -0.121 | P -0.174 | M -0.135 | E -0.191 | V -0.065 | L -0.113 | H -0.119 | C -0.123 | N -0.313
C8: D -0.646 | W -1.24 | V -0.949 | I -0.847 | L -1.31 | S -0.891 | H -0.854 | R -1.02 | Y -1.07 | A -0.883 | K -0.664 | E -0.711 | F -1.45 | P -0.874 | Q -0.832
